{"source": "patent US20150099269", "about": "“Hybridization- Independent Labeling Of Repetitive DNA Sequence In Human Chromsomes” (University of Massachusetts, published 2015)", "key": {"[1]": {"biological_target": "T1, TALE-TelR15 Green-Lysine labelled, no FP (artificial)", "T1 chain": "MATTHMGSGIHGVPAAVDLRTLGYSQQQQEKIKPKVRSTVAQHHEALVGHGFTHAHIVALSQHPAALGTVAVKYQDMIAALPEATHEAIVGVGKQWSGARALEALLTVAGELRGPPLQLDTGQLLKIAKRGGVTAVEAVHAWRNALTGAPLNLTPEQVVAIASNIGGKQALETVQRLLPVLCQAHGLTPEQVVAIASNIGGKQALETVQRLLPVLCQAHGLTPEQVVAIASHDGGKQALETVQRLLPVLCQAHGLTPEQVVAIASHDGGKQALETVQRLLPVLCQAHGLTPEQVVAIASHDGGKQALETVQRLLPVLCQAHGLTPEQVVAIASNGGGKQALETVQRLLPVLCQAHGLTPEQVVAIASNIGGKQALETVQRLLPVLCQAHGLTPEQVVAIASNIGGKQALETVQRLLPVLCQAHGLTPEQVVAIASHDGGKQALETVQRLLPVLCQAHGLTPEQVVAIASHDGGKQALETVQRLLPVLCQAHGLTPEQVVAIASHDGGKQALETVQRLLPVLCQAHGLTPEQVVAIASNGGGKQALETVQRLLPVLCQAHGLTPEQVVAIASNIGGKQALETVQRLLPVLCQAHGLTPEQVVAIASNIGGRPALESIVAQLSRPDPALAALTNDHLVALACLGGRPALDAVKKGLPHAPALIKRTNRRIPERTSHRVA", "experiment": "fixed U2OS cells, compared with the mCherry fusion", "conditions": "tags: internal lysines labelled with green dye (Promega), pET30a vector"}, "TALE-TelR15": {"biological_target": "T2, TALE-TelR15 (artificial)", "T2 chain": "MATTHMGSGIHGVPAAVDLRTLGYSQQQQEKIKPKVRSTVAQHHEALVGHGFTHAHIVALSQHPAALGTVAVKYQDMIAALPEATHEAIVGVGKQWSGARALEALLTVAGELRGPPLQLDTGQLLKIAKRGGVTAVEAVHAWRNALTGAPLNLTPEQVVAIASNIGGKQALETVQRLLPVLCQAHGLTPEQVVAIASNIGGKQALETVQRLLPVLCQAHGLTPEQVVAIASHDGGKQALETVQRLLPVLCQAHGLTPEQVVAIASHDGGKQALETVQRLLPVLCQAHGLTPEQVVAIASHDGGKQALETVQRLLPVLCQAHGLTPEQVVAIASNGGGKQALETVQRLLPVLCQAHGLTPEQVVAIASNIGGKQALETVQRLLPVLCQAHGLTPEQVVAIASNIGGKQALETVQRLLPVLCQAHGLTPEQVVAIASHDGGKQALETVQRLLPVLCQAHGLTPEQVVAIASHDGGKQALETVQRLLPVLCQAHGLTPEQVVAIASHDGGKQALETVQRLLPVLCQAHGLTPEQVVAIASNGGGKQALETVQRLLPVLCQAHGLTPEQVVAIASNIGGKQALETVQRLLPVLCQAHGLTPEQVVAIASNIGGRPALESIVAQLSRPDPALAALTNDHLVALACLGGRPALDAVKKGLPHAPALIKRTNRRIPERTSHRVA", "experiment": "methanol-fixed, 2N HCl treated cells, room temperature; signal correlates with telomere length (HeLa 1.3 higher than HeLa S3)", "conditions": "tags: fused sfGFP, mTagBFP2, mTFP1, YPet or mCherry (pT7CFE1-His vector)", "description": "Cells grown on coverslips were fixed in ice-cold methanol for 10 min at −20° C. All subsequent steps were carried out at room temperature. The fixed cells were incubated with 2N HCl for 5 min and then washed twice with PBS for 5 min each and then incubated with a given TALEColor probe as a 1:10 dilution from the coupled in vitro transcription-translation reactions mixtures for 30 min. The cells were then washed once with PBS for 5 min. Coverslips were mounted in Prolong Antifade (Molecular Probes, Eugene, Oreg.), and images were captured with the fluorescence microscopy system described above."}}, "data": [{"binder": "TelR15 target (dsDNA) DNA 1: TAACCCTAACCCTAA DNA 2: TTAGGGTTAGGGTTA", "values": [{"measurement": "binding result", "setting": "[1]", "value": "binds"}, {"measurement": "binding result", "setting": "TALE-TelR15", "value": "binds"}]}]}
